B1: Heme Detoxification Protein (HDP), native, from P. falciparum-infected RBCs (natural protein, UniProt Q8IL04 1-205, looked up)
chain: MKNRFYYNLIIKRLYTRSGGLRKPQKVTNDPESINRKVYWCFEHKPVKRTIINLIYSHNELKIFSNLLNHPTVGSSLIHELSLDGPYTAFFPSNEAMQLINIESFNKLYNDENKLSEFVLNHVTKEYWLYRDLYGSSYQPWLMYNEKREAPEKLRNLLNNDLIVKIEGEFKHCNHSIYLNGSKIIRPNMKCHNGVVHIVDKPIIF
notes: Heme Detoxification Protein (HDP), Plasmodium falciparum, 205 amino acids; detected as intact HDP according to its predicted size; Called a dimer from bands on immunoblots and a silver-stained gel; also called native HDP; PfHDP; source: endogenous, extracts of P. falciparum trophozoite-infected RBCs and food vacuole preparation; also purified from the infected RBC extract by immunoprecipitation
B2: HDPc-Myc (HDP with a carboxyl-terminal c-Myc tag) (natural protein, P. falciparum, UniProt Q8IL04 1-205, looked up)
chain: B1 chain
notes: Heme Detoxification Protein (HDP), Plasmodium falciparum, 205 amino acids; the tag is described as attached to the end of the protein and found intact; also called pHDPc-Myc; source: P. falciparum 3D7 parasites, transfected (episomal expression), secreted into infected RBC cytosol; not shown: c-Myc, C-terminal, kept
B3: c-MycHDP (HDP with an amino-terminal c-Myc tag) (natural protein, P. falciparum, UniProt Q8IL04 1-205, looked up)
chain: B1 chain
notes: Heme Detoxification Protein (HDP), Plasmodium falciparum, 205 amino acids; the tag is described as attached to the end of the protein and found intact; also called pc-MycHDP; source: P. falciparum 3D7 parasites, transfected (episomal expression), secreted into infected RBC cytosol; not shown: c-Myc, N-terminal, kept

What was measured:
[1] = biological target: T1, HDP (Heme Detoxification Protein; PF14_0446) (Plasmodium falciparum, UniProt Q8IL04); assay: isothermal titration calorimetry; format: binding
T1 construct: full length, 205 residues; E. coli BL21 inclusion bodies, N-lauryl sarkosine solubilised

[2] = biological target: the molecule itself; assay: immunoblot (band of dimer size); Western blot with anti-HDP antibodies on protein extract of trophozoite-infected RBCs; gel conditions not shown
[3] = biological target: the molecule itself; assay: immunoblot (band of dimer size); Western blot of transfected parasites with a monoclonal antibody against the c-myc tag; protein secreted into infected RBC cytosol

Molecule	stoichiometry N [3]	other results
C=CC1=C(C)C2=Cc3c(C=C)c(C)c4[n]3[Fe]([Cl])[n]3c(c(C)c(CCC(=O)O)c3=CC3=NC(=C4)C(C)=C3CCC(=O)O)=CC1=N2 [heme]		Kd [1]: 80 nM
B1		stoichiometry N [2]: 2
B2	2	
B3	2	
